One block for each molecule: values may come before it.
What was measured:
[1] = biological target: Growth hormone secretagogue receptor (Homo sapiens) (UniProt Q92847); conditions: cited from earlier work
[2] = biological target: T1, ghrelin (Homo sapiens, UniProt Q9UBU3, octanoylated ghrelin); assay: fluorescence displacement of atto520-ghrelin
T1 chain: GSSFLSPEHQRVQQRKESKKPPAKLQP

[3] = biological target: T1, ghrelin; assay: fluorescence displacement of atto520-ghrelin (Goldstein-Barrett corrected)

Molecule: Ghrelin (from UniProt Q9UBU3)
Kd [1]: 0.15 nM

IC50 [2]: 6870 nM | Ki [3]: 10 nM
B1: GHS receptor (GHSR1a) (protein)
chain: MWNATPSEEPGFNLTLADLDWDASPGNDSLGDELLQLFPAPLLAGVTATCVALFVVGIAGNLLTMLVVSRFRELRTTTNLYLSSMAFSDLLIFLCMPLDLVRLWQYRPWNFGDLLCKLFQFVSESCTYATVLTITALSVERYFAICFPLRAKVVVTKGRVKLVIFVIWAVAFCSAGPIFVLVGVEHENGTDPWDTNECRPTEFAVRSGLLTVMVWVSSIFFFLPVFCLTVLYSLIGRKLWRRRRGDAVVGASLRDQNHKQTVKMLAVVVFAFILCWLPFHVGRYLFSKSFEPGSLEIAQISQYCNLVSFVLFYLSAAINPILYNIMSKKYRVAVFRLLGFEPFSQRKLSTLKDESSRAWTESSINT
